Positions count from the first letter of the chain named.
B1: humanized anti-CD20 antibody 2H7.v511 containing 94-95% nonfucosylation (from best stable clone RNAi2.4-3d) (antibody, human IgG1, kappa)
heavy: EVQLVESGGGLVQPGGSLRLSCAASGYTFTSYNMHWVRQAPGKGLEWVGAIYPGNGATSYNQKFKGRFTISVDKSKNTLYLQMNSLRAEDTAVYYCARVVYYSYRYWYFDVWGQGTLVTVSSASTKGPSVFPLAPSSKSTSGGTAALGCLVKDYFPEPVTVSWNSGALTSGVHTFPAVLQSSGLYSLSSVVTVPSSSLGTQTYICNVNHKPSNTKVDKKVEPKSCDKTHTCPPCPAPELLGGPSVFLFPPKPKDTLMISRTPEVTCVVVDVSHEDPEVKFNWYVDGVEVHNAKTKPREEQYNATYRVVSVLTVLHQDWLNGKEYKCKVSNAALPAPIAATISKAKGQPREPQVYTLPPSREEMTKNQVSLTCLVKGFYPSDIAVEWESNGQPENNYKTTPPVLDSDGSFFLYSKLTVDKSRWQQGNVFSCSVMHEALHNHYTQKSLSLSPGK
light: DIQMTQSPSSLSASVGDRVTITCRASSSVSYLHWYQQKPGKAPKPLIYAPSNLASGVPSRFSGSGSGTDFTLTISSLQPEDFATYYCQQWAFNPPTFGQGTKVEIKRTVAAPSVFIFPPSDEQLKSGTASVVCLLNNFYPREAKVQWKVDNALQSGNSQESVTEQDSKDSTYSLSSTLTLSKADYEKHKVYACEVTHQGLSSPVTKSFNRGEC
modifications: N-linked glycan at Asn297; 94-95% nonfucosylation
notes: In the ELISA the IgG was complexed with goat F(ab')2 anti-kappa; also called hu2H7.v511; 95% nonfucosylated material
B2: humanized anti-CD20 antibody 2H7.v511 containing 65% nonfucosylation (from transient run) (antibody, human IgG1, kappa)
heavy: B1 heavy
light: B1 light
modifications: N-linked glycan at Asn297; 65% nonfucosylation
notes: In the ELISA the IgG was complexed with goat F(ab')2 anti-kappa; also called hu2H7.v511; v511-NF
B3: humanized anti-CD20 antibody 2H7.v16, antibody pool with 35% to 37% nonfucosylation (from RNAi2 / RNAi4 transiently transfected clone #60 cells) (antibody, human IgG1, kappa)
heavy: not shown
light: B1 light with L32M, A91S
modifications: N-linked glycan at Asn297; about 35 to 37% nonfucosylated
notes: differs only in fucose content of the Fc glycan; In the ELISA the IgG was complexed with goat F(ab')2 anti-kappa; RNAi2 and RNAi4 pools are reported together; also called 2H7 antibody pool with 35% to 37% nonfucosylation; lower fucose containing 2H7 antibodies
B4: humanized 2H7.v16 antibody from stable RNAi4 clone 7C (63% non-fucosylation) (antibody, human IgG1, kappa)
heavy: not shown
light: B1 light with L32M, A91S
modifications: N-linked glycan at Asn297; 63% non-fucosylation
notes: Glycoform preparation of 2H7.v16 from clone 60 stably transfected with the RNAi4 construct
B5: humanized 2H7.v16 antibody from stable RNAi4 clone 6C (60% non-fucosylation) (antibody, human IgG1, kappa)
heavy: not shown
light: B1 light with L32M, A91S
modifications: N-linked glycan at Asn297; 60% non-fucosylation
notes: as for B4
B6: humanized 2H7.v16 antibody from stable RNAi4 clone 5F (70% non-fucosylation) (antibody, human IgG1, kappa)
heavy: not shown
light: B1 light with L32M, A91S
modifications: N-linked glycan at Asn297; 70% non-fucosylation
notes: as for B4
B7: humanized 2H7.v16 antibody from clone 'Parent' of Table 1 (5% non-fucosylation) (antibody, human IgG1, kappa)
heavy: not shown
light: B1 light with L32M, A91S
modifications: N-linked glycan at Asn297; 5% non-fucosylation
B8: humanized 2H7.v16 antibody from clone 'Control' of Table 1 (3% non-fucosylation) (antibody, human IgG1, kappa)
heavy: not shown
light: B1 light with L32M, A91S
modifications: N-linked glycan at Asn297; 3% non-fucosylation
B9: humanized 2H7.v16 antibody from stable RNAi4 clone 5B (45% non-fucosylation) (antibody, human IgG1, kappa)
heavy: not shown
light: B1 light with L32M, A91S
modifications: N-linked glycan at Asn297; 45% non-fucosylation
notes: as for B4

Biological target: T1, human FcγRIII (F158), low affinity isotype (human, UniProt P08637 17-208)
T1 construct: Receptor captured on plates by anti-GST (clone 8E2.1.1); also called FcγRIII (F158 allele); FcγRIIIA (F158); not shown: GST tag implied by capture on anti-GST coated plates
Test: FcγRIII binding ELISA; relative to control 2H7.v511 antibody pools with about 5% nonfucosylation
Method: (§1) Plates were washed with PBS containing 0.05% polysorbate, pH 7.4 (wash buffer) and blocked with PBS containing 0.5% BSA, pH 7.4, at 150 μl/well. After a one-hour incubation at room temperature, plates were washed with wash buffer. Human FcγRIII was added to the plates at 0.25 μg/ml, 100 μl/well, in PBS containing 0.5% BSA, 0.05% polysorbate 20, pH 7.4. (assay buffer). The plates were incubated for one hour and washed with wash buffer. Antibodies were incubated with goat F(ab′)₂ anti-K (Cappel, ICN Pharmaceuticals, Inc., Aurora, Ohio) at a 1:2 (w/w) ratio for 1 hour to form antibody complexes. Eleven […] serial dilutions of complexed IgG antibodies (0.85-50000 ng/ml in threefold serial dilution) in assay buffer were added to the plates. After a two-hour incubation, plates were washed with wash buffer. Bound IgG was detected by adding peroxidase labeled goat F(ab′)₂ anti-human IgG F(ab′)₂ (Jackson ImmunoResearch, West Grove, Pa.) at 100 μl/well in assay buffer. After a one-hour incubation, plates were washed with wash buffer and the substrate 3,3′,5,5′-tetramethyl benzidine (TMB) (Kirkegaard & Perry Laboratories) was added at 100 μl/well. The reaction was stopped by adding 1 M phosphoric acid at 100 μl/well. Absorbance was read at 450 nm on a multiskan Ascent reader (Thermo Labsystems, Helsinki, Finland). The absorbance at the midpoint of the standard curve (mid-OD) was calculated. The corresponding concentrations of standard and samples at this mid-OD were determined from the titration curves using a four-parameter nonlinear regression curve-fitting program (KaleidaGraph, Synergy software, Reading, Pa.). The relative activity was calculated by dividing the mid-OD concentration of standard by that of sample.
(§2) A FcγRIII binding assay was done with antibody 2H7.v511 containing either 65% nonfucosylation (from transient run) or 94-95% nonfucosylation (from best stable clone RNAi2.4-3d).

T1 sequence (P08637 17-208): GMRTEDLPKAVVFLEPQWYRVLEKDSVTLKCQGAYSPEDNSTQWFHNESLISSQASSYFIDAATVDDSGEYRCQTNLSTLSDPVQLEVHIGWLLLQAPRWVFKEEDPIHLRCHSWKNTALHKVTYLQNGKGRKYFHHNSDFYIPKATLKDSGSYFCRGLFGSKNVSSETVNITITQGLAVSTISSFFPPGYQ

fold increase in affinity | Binder
9.8 fold | B1
6.2 fold | B2

Biological target: T2, human FcγRIII (V158), high affinity isotype (human, UniProt P08637 17-208)
T2 construct: Receptor captured by anti-GST; construct not described; also called FcγRIII (V158 allele); FcγRIIIA (V158); not shown: GST tag implied by capture on anti-GST coated plates
Test: as above
Method: as §1, §2

T2 sequence (P08637 17-208 F176V): as the sequence (P08637 17-208) above, with F160V counted along it

fold increase in affinity | Binder
6.8 fold | B1
4.8 fold | B2

Biological target: T1, human FcγRIII (F158), low affinity …
Test: FcγR binding ELISA; relative to 2H7 control cell line antibody (2 to 4% nonfucosylated)

fold increase in binding affinity | Binder
6 fold | B3

Biological target: T2, human FcγRIII (V158), high affinity …
Test: as above

fold increase in binding affinity | Binder
4 fold | B3

Biological target: T1, human FcγRIII (F158), low affinity …
Test: FcγRIII binding ELISA; anti-GST captured receptor, IgG complexed with anti-kappa F(ab')2; relative activity
Method: as §1, with “MaxiSorp 96-well microwell plates (Nunc, Roskilde, Denmark) were coated with 2 μg/ml anti-GST (clone 8E2.1.1, Genentech), at 100 μl/well in 50 mM carbonate buffer, pH 9.6, at 4° C. overnight. Plates” for “Plates”

Binding (fold) | Binder
32.4 fold | B4
34 fold | B5
52.4 fold | B6
1 fold | B7
1 fold | B8
24.2 fold | B9

Biological target: T2, human FcγRIII (V158), high affinity …
Test: as above
Method: as §1, with “MaxiSorp 96-well microwell plates (Nunc, Roskilde, Denmark) were coated with 2 μg/ml anti-GST (clone 8E2.1.1, Genentech), at 100 μl/well in 50 mM carbonate buffer, pH 9.6, at 4° C. overnight. Plates” for “Plates”

Binding (fold) | Binder
10.4 fold | B4
10.1 fold | B5
13.7 fold | B6
1 fold | B7
1 fold | B8
7.5 fold | B9

Source: US20090208500A1 (Genentech, published 2009)
